Experiments:
[1] = molecular target: T1, PAR1 binding to GST-PH-Etk/Bmx (Homo sapiens, UniProt P51813); assay: Peptide competition for binding of PAR1 cell lysates to GST-PH-Etk/Bmx; conditions: 1-1000 nM applied peptide; Western blot, FIG. 7B/7C
T1 construct: made in house; host or cells: Escherichia coli (general statement on GST fusion proteins)
T1 sequence (P51813 4-111 limits assumed): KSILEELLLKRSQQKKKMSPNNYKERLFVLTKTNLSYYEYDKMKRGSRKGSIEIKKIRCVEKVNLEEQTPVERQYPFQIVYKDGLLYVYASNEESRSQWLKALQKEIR
Procedure: GST fusion protein columns. Fusion proteins were purified from transformed Escherichia coli bacteria that had been stimulated with isopropyl-β-D-thio-galactopyranoside (IPTG) at a concentration of […]. Bacteria were lysed according to published procedures, and then immobilized on glutathione Sepharose beads (Pharmacia). Briefly, MDA-MB-435 cell lysates were applied to GST-PAR1 C-tail or GST control columns. After 2 h binding periods to the designated protein/s cell lysates to the columns, a washing step was performed. The washes (×3) were carried out using a “wash buffer” including: 100 mM NaCL, 20 mM EDTA, 10 mM Tris, pH 8.0 and 1% Triton ×100. This step was performed in order to wash out all non-specific proteins, leaving the GST-PAR1-C-tail column firmly bound to targeted cell lysate proteins. Next, elution of bound proteins was performed via the addition of gel “sample buffer” and appropriate boiling. The samples were run electrophoretically on SDS-PAGE gels, followed by immunoblotting with the indicated antibodies and ECL detection.
GST-PH-Etk/Bmx. The PH domain in Etk/Bmx was bound to GST column as previously described (Chen R, et al. (2001) Nat Cell Biol. 3: 439-444). Purification of PAR1 C-tail fragments. PAR1 C-tail fragments were generated using a “thrombin cleavage capture kit” (Novagen, Madison, Wis.; Cat no. 69022-3). The enzyme used for the cleavage was biotinylated human thrombin. Briefly, the cleavage was performed according to the manufacturer instructions. Biotinylated thrombin was removed from the cleavage reaction using streptavidin agarose beads, and the cleaved peptides (e.g., wt PAR1-C-tail and Y38 1A C-tail) were isolated and loaded on a GST-Etk-PH column. After incubation for 4 h the purified fragments were applied onto the GST-PH-Etk/Bmx column and detected following gel separation and western blotting analysis using anti-PAR1 antibodies (ATAP, Santa Cruz, Calif. ).
Identification of PAR1-Etk/Bmx binding region: functional consequences. […]

MDA-MB-435 cells = assay: Wound assay (cell migration) in MDA-MB-435 cell monolayer; format: cell-based, human; conditions: MDA-MB-435 monolayer, 24 h, PAR1 activation; compared to control untreated cells; FIG. 9D
Procedure: In a parallel experiment, a wound assay for determining the rate of cell migration, showing the ability of the cells to fill in gaps in an MDA-MB-435 cell monolayer, was performed. MDA-MB-435 cell monolayer expressing endogenous Etk/Bmx was scratched to introduce an equal gap-area under the following conditions: control untreated cells, TFLLRNPNDK-activated or SiRNA-Etk/Bmx and TFLLRNPNDK-activated. […] Similar inhibition was obtained in the presence of the PAR1 antagonist, SCH 79797 (FIG. 9D, bottom panel), pointing to the important role of both PAR1 and Etk/Bmx in wound closure/migration of PAR1-activated MDA-MB-435 cells.

[2] = molecular target: T2, association between Etk/Bmx and PAR1-C-tail (Homo sapiens, UniProt P51813); assay: Competition experiment: co-immunoprecipitation of HA-PAR1 and T7-tagged Etk/Bmx in MCF7 clones; format: cell-based; conditions: 20 minutes after activation by thrombin or TFLLRN, IP anti-HA, blot anti-T7, FIG. 22
T2 construct: expressed in transfected cells
T2 sequence (P51813 1-675): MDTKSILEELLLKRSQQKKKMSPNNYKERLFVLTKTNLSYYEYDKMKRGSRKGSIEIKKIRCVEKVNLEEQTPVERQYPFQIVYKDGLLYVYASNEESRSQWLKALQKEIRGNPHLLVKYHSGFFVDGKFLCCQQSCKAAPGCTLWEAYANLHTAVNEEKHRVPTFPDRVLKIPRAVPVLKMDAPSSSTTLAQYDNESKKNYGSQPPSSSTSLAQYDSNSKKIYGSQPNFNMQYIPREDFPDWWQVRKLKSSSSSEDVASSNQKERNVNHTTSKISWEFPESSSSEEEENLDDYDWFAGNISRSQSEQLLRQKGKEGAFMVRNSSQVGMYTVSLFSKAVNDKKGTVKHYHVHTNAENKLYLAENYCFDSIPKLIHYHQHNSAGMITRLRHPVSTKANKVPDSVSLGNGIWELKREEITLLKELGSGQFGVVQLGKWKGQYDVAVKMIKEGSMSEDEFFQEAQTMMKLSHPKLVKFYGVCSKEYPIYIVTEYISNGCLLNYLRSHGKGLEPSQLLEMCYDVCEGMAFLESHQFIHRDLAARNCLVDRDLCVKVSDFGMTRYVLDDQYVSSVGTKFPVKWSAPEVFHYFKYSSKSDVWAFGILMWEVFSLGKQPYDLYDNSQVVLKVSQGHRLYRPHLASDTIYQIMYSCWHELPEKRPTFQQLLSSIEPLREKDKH
Procedure: Western blot and immunoprecipitation analysis: Cells were activated with agonist peptide TFLLRNPNDK (SEQ ID NO: 35) for the indicated periods of time and solubilized in lysis buffer containing 10 mM Tris-HCl, pH 7.4, 150 mM NaCl, 1 mM EDTA, 1% TritonX-100, and protease inhibitors ([…] aprotinin, 1 mM phenylmethylsulfonylfluoride, and […] leupeptin) at 4° C. for 30 min. The cell lysates were subjected to centrifugation at 12,000 rpm at 4° C. for 20 min. We used 400 μg of the supernatants with anti-PAR1 (ATAP, Santa Cruz, Calif. 1 μg), anti-HA (anti-HA sc-7392; Santa Cruz, Calif.), anti-Shc or Etk/Bmx antibodies (10 μg/ml). After overnight incubation, Protein A-Sepharose beads (Amersham Pharmacia Biotech, Buckinghamshire, UK) were added to the suspension (50 μl ), which was rotated at 4° C. for 1 h. The immunocomplexes were eluted and run electrophoretically on a 10% SDS-PAGE gel, followed by transfer to an Immobilon-P membrane (Millipore). Membranes were blocked and probed with 1 μg/ml amounts of the appropriate antibodies as follows: anti-PAR1 thrombin receptor mAb, (ATAP, from Santa Cruz, 1:1000); anti-Shc (BD, 1:2000); anti-Bmx (Transduction Laboratories, 1:1000) or anti-PY (Upstate 4G10, 1:2500), suspended in 3% BSA in 10 mM Tris-HCl, pH 7.5, 100 mM NaCl, and 0.5% Tween-20. […] Immunoreactive bands were detected by enhanced chemiluminescence (ECL). […]

| Molecule | competition for the binding of PAR1 cell lysates to GST-PH-Etk/Bmx [1] | closure of the wound / migration (MDA-MB-435 cells) | other results |
| --- | --- | --- | --- |
| residues 393-412: peptide representing PAR1 C-tail residues 393-412 (DPSSYNSSGQLMASKMDTCS; UniProt P25116 393-412, looked up, fragment) | did not compete |  |  |
| TFLLRNPNDK (listed as Homo sapiens) |  | Rapid closure of the wound |  |
| peptide 5: peptide representing PAR1 C-tail 387-400 (CCKESSDPSSYNSS; UniProt P25116 387-400, looked up, fragment) | did not compete |  |  |
| peptide 4: 18-amino-acid peptide encompassing residues 375-392 of PAR1 C-tail (SSECQRYVYSILCCKESS; UniProt P25116 375-392, looked up, fragment) | dose-dependent inhibition |  |  |
| CC(C)c1ccc(Cn2ccc3c4c(N)nc(NC5CC5)nc4ccc32)cc1 [SCH79797] |  | attenuated wound closure |  |
| SSECQRYVYSIL (listed as Homo sapiens) [NH2-SSECQRYVYSIL-COOH] |  |  | association between Etk/Bmx and PAR1-C-tail in the presence of the peptide [2]: No binding is observed |

From US10611798B2, “PAR1 and PAR2 c-tail peptides and peptide mimetics” (Hadasit Medical Research Services and Development Ltd., priority 2010, dated 2020)
